Measured values from doi:10.1101/2024.02.02.578563.

Key:
Assay in all cases: EMSA
rGST hnRNPA2B1 = rGST hnRNPA2B1 (UniProt P22626 1-353)
rGST APE1 WT = rGST APE1 WT (human, UniProt P27695 1-318)
[1] = molecular target: rGST APE1 NdeltaN33 (APE1NΔ33) (human, UniProt P27695 34-318, del1-33)
Chain of rGST APE1 NdeltaN33 (APE1NΔ33) (P27695 34-318, stated change not applied): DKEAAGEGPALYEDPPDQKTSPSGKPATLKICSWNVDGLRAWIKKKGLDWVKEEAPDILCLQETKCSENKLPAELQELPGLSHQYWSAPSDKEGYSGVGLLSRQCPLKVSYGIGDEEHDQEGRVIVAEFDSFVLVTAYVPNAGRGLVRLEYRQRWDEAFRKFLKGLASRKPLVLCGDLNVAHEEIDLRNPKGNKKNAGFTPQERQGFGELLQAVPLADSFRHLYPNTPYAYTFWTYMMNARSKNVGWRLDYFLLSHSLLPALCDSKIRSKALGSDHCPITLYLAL

Chain of rGST APE1 WT (P27695 whole entry): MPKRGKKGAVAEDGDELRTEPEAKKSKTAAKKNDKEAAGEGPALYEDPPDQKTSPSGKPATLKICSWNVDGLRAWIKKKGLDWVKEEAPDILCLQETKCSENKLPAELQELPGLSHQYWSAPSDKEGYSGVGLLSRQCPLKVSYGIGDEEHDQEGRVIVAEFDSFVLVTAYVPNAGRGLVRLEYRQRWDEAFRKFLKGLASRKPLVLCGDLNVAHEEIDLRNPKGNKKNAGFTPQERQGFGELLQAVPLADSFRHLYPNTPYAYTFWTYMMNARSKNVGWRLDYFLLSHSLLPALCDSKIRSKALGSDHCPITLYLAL
Chain of rGST hnRNPA2B1 (P22626 whole entry): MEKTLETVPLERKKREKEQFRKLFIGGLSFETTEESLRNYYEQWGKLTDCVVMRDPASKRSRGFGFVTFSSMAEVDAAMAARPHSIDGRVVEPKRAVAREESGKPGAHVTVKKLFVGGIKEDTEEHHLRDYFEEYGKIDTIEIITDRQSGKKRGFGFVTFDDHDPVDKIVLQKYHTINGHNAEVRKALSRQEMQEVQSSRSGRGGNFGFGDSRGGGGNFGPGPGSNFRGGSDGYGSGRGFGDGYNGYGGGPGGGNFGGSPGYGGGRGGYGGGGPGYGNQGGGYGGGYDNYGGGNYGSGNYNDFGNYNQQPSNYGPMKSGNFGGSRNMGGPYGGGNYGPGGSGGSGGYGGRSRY

Row | Binder | binding result (rGST hnRNPA2B1) | binding result (rGST APE1 WT) | binding result [1]
1 | GGGGAGGUUAGGGAGGAGGGGGGUAGGCGCC (ssRNA) [EXO-miR] | binds | binds | 
2 | AAUGGAUUUUUGGAGCAGG (ssRNA) [hsa-miR-1246] | binds | binds | no binding
3 | GUGUGUACGGAUUGUAGAA (ssRNA) [scrEXO-miR-1246] |  | no binding | 
